The source of these data is article doi:10.1101/2022.03.25.485784 (bioRxiv, 2022).

For orientation: stoichiometry N means a count of units in the complex or per binding partner.

The data set concerns the molecule itself. Kind of data set: cryo-EM structure.

B1: dtSARM1, the full-length SARM1 with the N-terminal 27-aa segment replaced by a twin-Strep and Flag-tag (enzyme)
chain: LAVPGPDGGGGTGPWWAAGGRGPREVSPGAGTEVQDALERALPELQQALSALKQAGGARAVGAGLAEVFQLVEEAWLLPAVGREVAQGLCDAIRLDGGLDLLLRLLQAPELETRVQAARLLEQILVAENRDRVARIGLGVILNLAKEREPVELARSVAGILEHMFKHSEETCQRLVAAGGLDAVLYWCRRTDPALLRHCALALGNCALHGGQAVQRRMVEKRAAEWLFPLAFSKEDELLRLHACLAVAVLATNKEVEREVERSGTLALVEPLVASLDPGRFARCLVDASDTSQGRGPDDLQRLVPLLDSNRLEAQCIGAFYLCAEAAIKSLQGKTKVFSDIGAIQSLKRLVSYSTNGTKSALAKRALRLLGEEVPRPILPSVPSWKEAEVQTWLQQIGFSKYCESFREQQVDGDLLLRLTEEELQTDLGMKSGITRKRFFRELTELKTFANYSTCDRSNLADWLGSLDPRFRQYTYGLVSCGLDRSLLHRVSEQQLLEDCGIHLGVHRARILTAAREMLHSPLPCTGGKPSGDTPDVFISYRRNSGSQLASLLKVHLQLHGFSVFIDVEKLEAGKFEDKLIQSVMGARNFVLVLSPGALDKCMQDHDCKDWVHKEIVTALSCGKNIVPIIDGFEWPEPQVLPEDMQAVLTFNGIKWSHEYQEATIEKIIRFLQGRSSRDSSAGSDTSLEGAAPMGPT
For B1, the “stoichiometry N” value worked out at 8.
